B1: 6NMW (parent)
chain: QGDIVVALYPYDGIHPDDLSFKKGEKMKVLEEHGEWWKAKSLLTKKEGFIPSNYVAKLN

Variants of: B1
Test: folding stability dG (cDNA display proteolysis); higher = more stable
Settings: PBS, room temperature

In order of rising “folding stability dG” value:
1. L19S  -0.898 kcal/mol
2. M27Q  -0.878 kcal/mol
3. L19D  -0.824 kcal/mol
4. V29S  -0.702 kcal/mol
5. E25I  -0.618 kcal/mol
6. E31P  -0.549 kcal/mol
7. F21Y  -0.495 kcal/mol
8. F21W  -0.416 kcal/mol
9. M27H  -0.396 kcal/mol
10. E25G  -0.389 kcal/mol
11. E25L  -0.25 kcal/mol
12. L19P  -0.243 kcal/mol
13. F21L  -0.236 kcal/mol
14. L19N  -0.23 kcal/mol
15. F21Q  -0.217 kcal/mol
16. M27W  -0.174 kcal/mol
17. M27Y  -0.162 kcal/mol
18. E25V  -0.121 kcal/mol
19. L19R  -0.083 kcal/mol
20. E25F  -0.064 kcal/mol
21. L19A  -0.055 kcal/mol
22. V29W  -0.028 kcal/mol
23. V29R  0.08 kcal/mol
24. V29Q  0.108 kcal/mol
25. M27V  0.125 kcal/mol
26. E25Y  0.16 kcal/mol
27. L19T  0.168 kcal/mol
28. V29Y  0.219 kcal/mol
29. D18P  0.221 kcal/mol
30. V29P  0.224 kcal/mol
31. L19W  0.23 kcal/mol
32. K26D  0.255 kcal/mol
33. L30G  0.263 kcal/mol
34. G24T  0.282 kcal/mol
35. E25R  0.331 kcal/mol
36. E25N  0.344 kcal/mol
37. L19V  0.435 kcal/mol
38. G24K  0.476 kcal/mol
39. V29A  0.496 kcal/mol
40. L30N  0.519 kcal/mol
41. L30D  0.53 kcal/mol
42. M27C  0.54 kcal/mol
43. G24Q  0.576 kcal/mol
44. L19Y  0.613 kcal/mol
45. E25T  0.615 kcal/mol
46. E25S  0.621 kcal/mol
47. L19C  0.728 kcal/mol
48. E25M  0.74 kcal/mol
49. K22P  0.747 kcal/mol
50. F21C  0.758 kcal/mol
51. L30R  0.866 kcal/mol
52. L30K  0.883 kcal/mol
53. E25Q  0.918 kcal/mol
54. G24R  0.941 kcal/mol
55. L30H  0.943 kcal/mol
56. E25H  0.959 kcal/mol
57. F21I  0.968 kcal/mol
58. V29T  0.988 kcal/mol
59. L30A  1.01 kcal/mol
60. G24L  1.02 kcal/mol
61. L19F  1.02 kcal/mol
62. V29F  1.05 kcal/mol
63. G24M  1.07 kcal/mol
64. K26G  1.11 kcal/mol
65. G34F  1.15 kcal/mol
66. S20L  1.15 kcal/mol
67. G24E  1.16 kcal/mol
68. V29C  1.16 kcal/mol
69. K23N  1.18 kcal/mol
70. S20F  1.18 kcal/mol
71. L30E  1.21 kcal/mol
72. E25A  1.21 kcal/mol
73. K28D  1.21 kcal/mol
74. F21M  1.22 kcal/mol
75. E25W  1.22 kcal/mol
76. S20Y  1.22 kcal/mol
77. G34W  1.24 kcal/mol
78. G24A  1.25 kcal/mol
79. V29K  1.25 kcal/mol
80. G24S  1.3 kcal/mol
81. K23D  1.3 kcal/mol
82. E25C  1.3 kcal/mol
83. K28G  1.31 kcal/mol
84. G34I  1.4 kcal/mol
85. G34V  1.41 kcal/mol
86. H33P  1.43 kcal/mol
87. G34Y  1.45 kcal/mol
88. K22W  1.45 kcal/mol
89. L19I  1.46 kcal/mol
90. G34T  1.48 kcal/mol
91. L30W  1.5 kcal/mol
92. L30S  1.5 kcal/mol
93. G34P  1.5 kcal/mol
94. G34L  1.52 kcal/mol
95. L30Q  1.56 kcal/mol
96. G34M  1.59 kcal/mol
97. K23G  1.64 kcal/mol
98. G34R  1.65 kcal/mol
99. S20W  1.65 kcal/mol
100. G34H  1.67 kcal/mol
101. F21V  1.74 kcal/mol
102. G34Q  1.74 kcal/mol
103. M27I  1.74 kcal/mol
104. S20E  1.75 kcal/mol
105. H15V  1.77 kcal/mol
106. S20D  1.82 kcal/mol
107. G34K  1.84 kcal/mol
108. K23H  1.85 kcal/mol
109. G34E  1.86 kcal/mol
110. S20M  1.88 kcal/mol
111. V29M  1.93 kcal/mol
112. G34D  1.96 kcal/mol
113. G34S  2 kcal/mol
114. S20G  2.01 kcal/mol
115. S20N  2.01 kcal/mol
116. K23P  2.02 kcal/mol
117. G34A  2.02 kcal/mol
118. K28N  2.02 kcal/mol
119. S20H  2.03 kcal/mol
120. L30T  2.04 kcal/mol
121. K23W  2.06 kcal/mol
122. S20I  2.09 kcal/mol
123. G24D  2.1 kcal/mol
124. L19M  2.12 kcal/mol
125. G24F  2.13 kcal/mol
126. G24H  2.15 kcal/mol
127. K26N  2.15 kcal/mol
128. G24N  2.19 kcal/mol
129. D17I  2.2 kcal/mol
130. G34N  2.22 kcal/mol
131. D17V  2.23 kcal/mol
132. S20R  2.23 kcal/mol
133. G24Y  2.25 kcal/mol
134. L30Y  2.27 kcal/mol
135. S20Q  2.27 kcal/mol
136. K22Y  2.29 kcal/mol
137. K26S  2.3 kcal/mol
138. S20V  2.33 kcal/mol
139. K23S  2.34 kcal/mol
140. L30V  2.34 kcal/mol
141. D17P  2.35 kcal/mol
142. E25D  2.36 kcal/mol
143. L30F  2.37 kcal/mol
144. K26P  2.39 kcal/mol
145. K23F  2.42 kcal/mol
146. L30C  2.42 kcal/mol
147. S20K  2.48 kcal/mol
148. K22F  2.5 kcal/mol
149. G24W  2.51 kcal/mol
150. K23Y  2.51 kcal/mol
151. K26E  2.52 kcal/mol
152. E32P  2.54 kcal/mol
153. E31R  2.56 kcal/mol
154. P16Y  2.59 kcal/mol
155. E31H  2.63 kcal/mol
156. S20A  2.64 kcal/mol
157. E31V  2.64 kcal/mol
158. K22H  2.66 kcal/mol
159. K22N  2.67 kcal/mol
160. E31L  2.67 kcal/mol
161. E31K  2.67 kcal/mol
162. P16N  2.68 kcal/mol
163. D18I  2.69 kcal/mol
164. E31T  2.69 kcal/mol
165. P16L  2.7 kcal/mol
166. K22D  2.71 kcal/mol
167. P16F  2.73 kcal/mol
168. K22G  2.74 kcal/mol
169. K23T  2.75 kcal/mol
170. H33D  2.75 kcal/mol
171. P16G  2.75 kcal/mol
172. G34C  2.75 kcal/mol
173. S20C  2.77 kcal/mol
174. E31G  2.77 kcal/mol
175. K28S  2.77 kcal/mol
176. K26A  2.78 kcal/mol
177. K23L  2.79 kcal/mol
178. P16W  2.79 kcal/mol
179. P16M  2.81 kcal/mol
180. S20P  2.81 kcal/mol
181. D18L  2.84 kcal/mol
182. L30M  2.85 kcal/mol
183. P16R  2.87 kcal/mol
184. P16T  2.87 kcal/mol
185. K23E  2.88 kcal/mol
186. D18N  2.88 kcal/mol
187. K23M  2.89 kcal/mol
188. P16H  2.92 kcal/mol
189. K23I  2.95 kcal/mol
190. P16S  2.98 kcal/mol
191. E31I  2.98 kcal/mol
192. P16I  3 kcal/mol
193. H33A  3.01 kcal/mol
194. K28H  3.02 kcal/mol
195. H15Q  3.03 kcal/mol
196. E31D  3.05 kcal/mol
197. E31M  3.05 kcal/mol
198. H33Q  3.06 kcal/mol
199. K22E  3.06 kcal/mol
200. E31Y  3.07 kcal/mol
201. P16Q  3.08 kcal/mol
202. D18V  3.08 kcal/mol
203. D18K  3.08 kcal/mol
204. K22S  3.08 kcal/mol
205. P16V  3.11 kcal/mol
206. E31Q  3.11 kcal/mol
207. H33T  3.12 kcal/mol
208. K26T  3.12 kcal/mol
209. S20T  3.13 kcal/mol
210. E31F  3.14 kcal/mol
211. E35G  3.14 kcal/mol
212. D18R  3.15 kcal/mol
213. K22T  3.15 kcal/mol
214. H33V  3.16 kcal/mol
215. K22A  3.17 kcal/mol
216. E31W  3.2 kcal/mol
217. K22L  3.21 kcal/mol
218. K28A  3.21 kcal/mol
219. K23Q  3.22 kcal/mol
220. P16D  3.22 kcal/mol
221. H33I  3.23 kcal/mol
222. H33G  3.24 kcal/mol
223. H15S  3.26 kcal/mol
224. K28T  3.27 kcal/mol
225. K22C  3.28 kcal/mol
226. L30I  3.29 kcal/mol
227. H33M  3.29 kcal/mol
228. P16A  3.29 kcal/mol
229. D18W  3.29 kcal/mol
230. K23R  3.33 kcal/mol
231. D18G  3.33 kcal/mol
232. E32G  3.33 kcal/mol
233. H33W  3.34 kcal/mol
234. D17A  3.37 kcal/mol
235. H33K  3.38 kcal/mol
236. K23A  3.39 kcal/mol
237. K23V  3.39 kcal/mol
238. H15W  3.39 kcal/mol
239. P16K  3.4 kcal/mol
240. H33L  3.41 kcal/mol
241. H33R  3.41 kcal/mol
242. K22M  3.46 kcal/mol
243. E31A  3.46 kcal/mol
244. D17M  3.47 kcal/mol
245. E32W  3.48 kcal/mol
246. K22Q  3.49 kcal/mol
247. D17K  3.5 kcal/mol
248. E32H  3.54 kcal/mol
249. P16C  3.56 kcal/mol
250. K26Q  3.56 kcal/mol
251. K23C  3.59 kcal/mol
252. E35R  3.59 kcal/mol
253. H33Y  3.6 kcal/mol
254. D17L  3.6 kcal/mol
255. D18A  3.61 kcal/mol
256. G24C  3.62 kcal/mol
257. H33N  3.62 kcal/mol
258. D17S  3.63 kcal/mol
259. H15P  3.63 kcal/mol
260. E35P  3.64 kcal/mol
261. K22R  3.65 kcal/mol
262. H15N  3.65 kcal/mol
263. D18M  3.67 kcal/mol
264. D17T  3.68 kcal/mol
265. D17F  3.71 kcal/mol
266. D17E  3.72 kcal/mol
267. M27F  3.72 kcal/mol
268. E35T  3.73 kcal/mol
269. H33F  3.74 kcal/mol
270. H15Y  3.75 kcal/mol
271. D17H  3.78 kcal/mol
272. K22V  3.82 kcal/mol
273. E35S  3.82 kcal/mol
274. D17N  3.83 kcal/mol
275. E32N  3.83 kcal/mol
276. K22I  3.84 kcal/mol
277. D17Q  3.88 kcal/mol
278. K28C  3.9 kcal/mol
279. K28F  3.91 kcal/mol
280. D17Y  3.92 kcal/mol
281. E35Q  3.92 kcal/mol
282. H15R  3.93 kcal/mol
283. D18S  3.94 kcal/mol
284. E35V  3.94 kcal/mol
285. E35K  3.94 kcal/mol
286. E32T  3.95 kcal/mol
287. D18T  3.97 kcal/mol
288. E35I  3.97 kcal/mol
289. E35N  4.01 kcal/mol
290. E35A  4.01 kcal/mol
291. D18Y  4.04 kcal/mol
292. E35M  4.06 kcal/mol
293. D18F  4.07 kcal/mol
294. D18C  4.07 kcal/mol
295. K28E  4.07 kcal/mol
296. E31C  4.09 kcal/mol
297. E32Q  4.09 kcal/mol
298. E32F  4.1 kcal/mol
299. E35W  4.11 kcal/mol
300. K26V  4.19 kcal/mol
301. K28Y  4.2 kcal/mol
302. D17R  4.21 kcal/mol
303. E32L  4.21 kcal/mol
304. E35L  4.23 kcal/mol
305. K28R  4.26 kcal/mol
306. E32R  4.29 kcal/mol
307. K26H  4.3 kcal/mol
308. E32A  4.31 kcal/mol
309. D17C  4.33 kcal/mol
310. K26C  4.34 kcal/mol
311. E32D  4.38 kcal/mol
312. E32Y  4.42 kcal/mol
313. H33C  4.43 kcal/mol
314. K28W  4.43 kcal/mol
315. E32C  4.44 kcal/mol
316. E32V  4.48 kcal/mol
317. K26M  4.51 kcal/mol
318. D18E  4.6 kcal/mol
319. K28M  4.6 kcal/mol
320. E32I  4.6 kcal/mol
321. E35H  4.61 kcal/mol
322. V29L  4.64 kcal/mol
323. E32M  4.65 kcal/mol
324. K26I  4.68 kcal/mol
325. K26W  4.72 kcal/mol
326. E32K  4.72 kcal/mol
327. K26F  4.75 kcal/mol
328. E35C  4.75 kcal/mol
329. D17G  4.77 kcal/mol
330. K26Y  4.84 kcal/mol
331. K28V  4.85 kcal/mol
332. D17W  4.86 kcal/mol
333. D18H  4.91 kcal/mol
334. D18Q  4.95 kcal/mol

Source: the MegaScale stability set (Tsuboyama et al. 2023)
